Residue numbers refer to the chain shown, from its start.
T1: Human ST2 (human, UniProt Q01638 19-328, limits assumed)
T1 construct: also called human ST2 protein; Interleukin 1 receptor-like 1
T1 sequence (looked up): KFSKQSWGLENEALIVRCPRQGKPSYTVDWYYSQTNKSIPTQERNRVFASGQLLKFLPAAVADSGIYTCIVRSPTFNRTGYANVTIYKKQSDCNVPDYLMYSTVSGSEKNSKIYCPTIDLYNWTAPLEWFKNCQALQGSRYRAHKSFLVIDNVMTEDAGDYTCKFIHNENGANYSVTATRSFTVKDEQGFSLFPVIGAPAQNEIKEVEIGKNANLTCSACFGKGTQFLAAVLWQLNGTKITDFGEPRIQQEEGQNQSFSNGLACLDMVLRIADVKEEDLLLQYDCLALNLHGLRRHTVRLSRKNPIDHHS

B1: Human ST2 IgG1 Antibody 71 (antibody, V domains shown)
VH: QVQLVQSGAEVKKPGASVKVSCKASGGTFSNYGVSWVRQAPGQGLEWMGGINPSRGTTTYAQKFQGRVTMTRDTSTSTVYMELSSLRSEDTAVYYCAKGDIVVVPAAMFSLGPGYYYYMDVWGKGTTVTVSS
VL: DIQMTQSPSSLSASVGDRVTITCRASQSISSYLNWYQQKPGKAPKLLIYAASSLQSGVPSRFSGSGSGTDFTLTISSLQPEDFATYYCQQANSFPITFGQGTKLEIKR
notes: IgG1; also called ST2 Antibody 71
B2: Human ST2 IgG1 Antibody 75 (antibody, V domains shown)
VH: EVQLLESGGGLVQHGGSLRLSCAASGFTFSSYWMSWVRQAPGKGLEWVSSISSSSSYIYYADSVKGRFTISRDNSKNTLYLQMNSLRAEDTAVYYCARDIAGYFDLWGRGTLVTVSS
VL: B1 VL with R24Q, A91G, N92Y, S93L, F94T, I96Y
notes: IgG1; also called ST2 Antibody 75
B3: Human ST2 IgG1 Antibody 89 (antibody, V domains shown)
VH: EVQLLESGGGLVKPGGSLRLSCAASGFTFSSYWMSWVRQAPGKGLEWVSAISGTAINTYYADSVKGRFTISRDDSKNTLYLQMNSLKTEDTAVYYCARVRRDSSGGGAFDIWGQGTMVTVSS
VL: B1 VL with S28G, S31N, Y32N, S56T, A91S, N92Y, F94T, I96P, L104V
notes: IgG1; also called ST2 Antibody 89
B4: Human ST2 IgG1 Antibody 83 (antibody, V domains shown)
VH: EVQLLESGGGLVKPGGSLRLSCAASGFTFSSYWMSWVRQAPGKGLEWVSAIGTAGDTYYPGSVKGRFTISRDDSKNTLYLQMNSLKTEDTAVYYCAILRRDKVWPFDYWGQGTLVTVSS
VL: B1 VL with Y32H, N34H, A91S, N92Y, F94S, I96V, Q100G, L104V
notes: IgG1; also called ST2 Antibody 83
B5: Human ST2 IgG1 Antibody 72 (antibody, V domains shown)
VH: EVQLLESGGGLVQPGGSLRLSCAASGFTFSSYGMSWVRQAPGKGLEWLAVIWSDGGHKYYADSVKGRFTISRDNSKNTLYLQMNSLRAEDTAVYYCAREVRGWFDPWGQGTLVTVSS
VL: DIQMTQSPSSLSASVGDRVTITCRASENIGTWLAWYQQKPGKAPKLLIYKASSLDSGVPSRFSGSGSGTDFTLTISSLQPEDFATYYCQQSYSTPYTFGQGTKLEIKR
notes: IgG1; also called ST2 Antibody 72
B6: Human ST2 IgG1 Antibody 74 (antibody, V domains shown)
VH: EVQLLESGGGLVQPGGSLRLSCAASGFTFSSYWMSWVRQAPGKGLEWVSSISSSSSYIYYADSVKGRFTISRDNSKNTLYLQMNSLRAEDTAVYYCARDQGWFDPWGQGTLVTVSS
VL: B5 VL with E27R, N28A, T31N, W32N, A34S, K50T, D55Q, L104V
notes: IgG1; also called ST2 Antibody 74
B7: Human ST2 IgG1 Antibody 91 (antibody, V domains shown)
VH: EVQLLESGGGLVKPGGSLRLSCAASGFTFSSYWMSWVRQAPGKGLEWVSVIYSGGSTYYADSVKGRFTISRDDSKNTLYLQMNSLKTEDTAVYYCARGLGWFDPWGQGTLVTVSS
VL: DIQMTQSPSSLSASVGDRVTITCQANQHIGNSLNWYQQKPGKAPKLLIFAASRLQSGVPSRFSGSGSGTDFTLTISSLQPEDFATYYCQQSYGTPLTFGGGTKVEIKR
notes: IgG1; also called ST2 Antibody 91
B8: Human ST2 IgG1 Antibody 81 (antibody, V domains shown)
VH: EVQLLESGGGLVKPGGSLRLSCAASGFTFSSYWMSWVRQAPGKGLEWVSSISSSGNYMYYAVSVKGRFTISRDDSKNTLYLQMNSLKTEDTAVYYCATETYSYSSMDVWGQGTTVTVSS
VL: DIQMTQSPSSLSASVGDRVTITCRASQSISSYLNWYQQKPGKAPKLLIYDASNLETGVPSRFSGSGSGTDFTLTISSLQPEDFATYYCQQSYGTPLTFGGGTKVDIKR
notes: IgG1; also called ST2 Antibody 81
B9: Human ST2 IgG1 Antibody 82 (antibody, V domains shown)
VH: QVQLVQSGAEVKKPGASVKVSCKASGYTFTENEMHWVRQAPGQGLEWMGWISAYNGDTNYAQKFQGRVTMTRDTSTSTVYMELSSLRSEDTAVYYCAKEVRLDDDEMWYFDLWGRGTLVTVSS
VL: B8 VL with S28D, S30N, S31N, Y32F, N34V, S91A, G93S, T94F, D105E
notes: IgG1; also called ST2 Antibody 82
B10: Human ST2 IgG1 Antibody 88 (antibody, V domains shown)
VH: EVQLLESGGGLVQPGGSLRLSCAASGFTFSSYWMSWVRQAPGKGLEWVSSISSSGGYLYYADSVKGRFTISRDNSKNTLYLQMNSLRAEDTAVYYCARDWGLTPDYWGQGTLVTVSS
VL: not shown
notes: IgG1; also called ST2 Antibody 88
B11: Human ST2 IgG1 Antibody 77 (antibody, V domains shown)
VH: QVQLVQSGAEVKKPGSSVKVSCKASGYTFSDHYIHWVRQAPGQGLEWMGGIIPILGTANYAQKFQGRVTITADESTSTAYMELSSLRSEDTAVYYCATDIAVAGTGFDYWGQGTLVTVSS
VL: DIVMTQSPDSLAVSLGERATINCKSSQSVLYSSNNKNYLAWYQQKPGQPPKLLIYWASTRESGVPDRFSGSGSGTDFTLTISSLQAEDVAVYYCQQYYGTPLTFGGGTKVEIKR
notes: IgG1; also called ST2 Antibody 77
B12: Human ST2 IgG1 Antibody 76 (antibody, V domains shown)
VH: QVQLVQSGAEVKKPGSSVKVSCKASGYTFTDYYMHWVRQAPGQGLEWMGVIIPVLGAAKYAQKFQGRVTITADESTSTAYMELSSLRSEDTAVYYCAKGWGAFDIWGQGTMVTVSS
VL: EIVMTQSPATLSVSPGERATLSCRASQSVSSYLAWYQQKPGQAPRLLIYGASTRASGIPARFSGSGSGTEFTLTISSLQSEDFAVYYCQQYYSYPWTFGQGTKVEIKR
notes: IgG1; also called ST2 Antibody 76
B13: Human ST2 IgG1 Antibody 86 (antibody, V domains shown)
VH: QVQLVQSGAEVKKPGSSVKVSCKASGGTFSNYAISWVRQAPGQGLEWMGGIIPIFGTANYAQKFQGRVTITADESTSTAYMELSSLRSEDTAVYYCAKDLGGWFNLFDPWGQGTLVTVSS
VL: B12 VL with S28G, S56T, Y92R, Y94F, W96L, Q100G
notes: IgG1; also called ST2 Antibody 86
B14: Human ST2 IgG1 Antibody 85 (antibody, V domains shown)
VH: EVQLLESGGGLVQPGGSLRLSCAASGFSFSTYWMHWVRQAPGKGLEWVSGISGGGIYTYYADSVKGRFTISRDNSKNTLYLQMNSLRAEDTAVYYCASMTYGDYYGMDVWGQGTTVTVSS
VL: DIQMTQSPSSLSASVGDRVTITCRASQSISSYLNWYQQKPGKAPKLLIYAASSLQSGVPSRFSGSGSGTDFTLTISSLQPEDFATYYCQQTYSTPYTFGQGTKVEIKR
notes: IgG1; also called ST2 Antibody 85
B15: Human ST2 IgG1 Antibody 80 (antibody, V domains shown)
VH: QVQLVQSGAEVKKPGSSVKVSCKASGGTFSSYAISWVRQAPGQGLEWMGGIIPIFGTANYAQKFQGRVTITADESTSTAYMELSSLRSEDTAVYYCARVMVAGTGYYFDYWGQGTLVTVSS
VL: DIVMTQSPLSLPVTPGEPASISCRSSQSLLHSNGYNYLDWYLQKPGQSPQLLIYGASSLQSGVPDRFSGSGSGTDFTLKISRVEAEDVGVYYCMQGLHTPPTFGQGTKLEIKR
notes: IgG1; also called ST2 Antibody 80
B16: Human ST2 IgG1 Antibody 90 (antibody, V domains shown)
VH: QVQLVQSGAEVKKPGSSVKVSCKASGYTFSDFSIHWVRQAPGQGLEWMGGMLPISHIAHYARKFQGRVTITADESTSTAYMELSSLRSEDTAVYYCARGGSSGWFEVWGQGTTVTVSS
VL: B15 VL with G55A, S58T, L97A, T99W
notes: IgG1; also called ST2 Antibody 90
B17: Human ST2 IgG1 Antibody 84 (antibody, V domains shown)
VH: B15 VH with I34L, V99A, M100A, V101A, G105A, Y106W, Y110L, Q113R
VL: not shown
notes: IgG1; also called ST2 Antibody 84
B18: Human ST2 IgG1 Antibody 92 (antibody, V domains shown)
VH: QVQLVQSGAEVKKPGSSVKVSCKASGGSFSGQAVNWVRQAPGQGLEWMGGFVSLFGTANYAQKFQGRVTITADESTSTAYMELSSLRSEDTAVYYCARDREGLGWYFDLWGRGTLVTVSS
VL: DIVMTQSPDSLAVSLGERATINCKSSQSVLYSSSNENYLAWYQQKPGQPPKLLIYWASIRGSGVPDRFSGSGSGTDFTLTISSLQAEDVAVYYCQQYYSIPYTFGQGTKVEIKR
notes: IgG1; also called ST2 Antibody 92
B19: Human ST2 IgG1 Antibody 78 (antibody, V domains shown)
VH: EVQLLESGGGLVQPGGSLRLSCAASDFNFKNAWMSWVRQAPGKGLEWVSAISGNGAGTYYADSVKGRFTISRDNSKNTLYLQMNSLRAEDTAVYYCARVGETGAFDIWGQGTTVTVSS
VL: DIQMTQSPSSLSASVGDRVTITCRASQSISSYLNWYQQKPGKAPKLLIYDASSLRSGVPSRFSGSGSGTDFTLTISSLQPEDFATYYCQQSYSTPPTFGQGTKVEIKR
notes: IgG1; also called ST2 Antibody 78
B20: Human ST2 IgG1 Antibody 73 (antibody, V domains shown)
VH: EVQLLESGGGLVQPGGSLRLSCAASGFAFSSHWMHWVRQAPGKGLEWVAVISYDGSNKYYADSVKGRFTISRDNSKNTLYLQMNSLRAEDTAVYYCARDRGMIDYWGQGTLVTVSS
VL: DIQMTQSPSSLSASVGDRVTITCRASQGIGSWLAWYQQKPGKAPKLLIHAATKLQTGVPSRFSGSGSGTDFTLTISSLQPEDFATYYCQQSYSTPFTFGPGTKVDIKR
notes: IgG1; also called ST2 Antibody 73
B21: Human ST2 IgG1 Antibody 87 (antibody, V domains shown)
VH: QVQLVQSGAEVKKPGASVKVSCKASGYTFAGQYMHWVRQAPGQGLEWMGNINPSGGSTSYAQRFQGRVTMTRDTSTSTVYMELSSLRSEDTAVYYCARGDYSETYYYYMDVWGKGTTVTVSS
VL: B20 VL with G28H, G30N, W32N, A34N, H49Y, A50G, T52S, K53S, T56S, S93T
notes: IgG1; also called ST2 Antibody 87

molecular target: T1, Human ST2; experiment: SPR (Carterra), antibody immobilized, ST2 analyte
Description: Binding of the reformatted human ST2 antibodies to the human and mouse ST2 proteins was evaluated by surface plasmon resonance (SPR), using a high throughput antibody screening and characterization platform from Carterra (Salt Lake City, Utah).

Kd [nM] | koff [s⁻¹] | kon [M⁻¹ s⁻¹] | Binder
912 | 0.12 | 140000 | B1
360 | 0.041 | 120000 | B2
102 | 0.024 | 240000 | B3
70 | 0.018 | 260000 | B4
335 | 0.082 | 240000 | B5
60 | 0.012 | 200000 | B6
256 | 0.041 | 160000 | B7
126 | 0.026 | 200000 | B8
204 | 0.003 | 15000 | B9
543 | 0.13 | 240000 | B10
377 | 0.099 | 260000 | B11
133 | 0.11 | 820000 | B12
41 | 0.029 | 720000 | B13
554 | 0.068 | 120000 | B14
842 | 0.056 | 67000 | B15
970 | 0.17 | 170000 | B16
125 | 0.0019 | 15000 | B17
662 | 0.13 | 200000 | B18
154 | 0.082 | 530000 | B19
603 | 0.085 | 140000 | B20
642 | 0.018 | 27000 | B21

Source: US20210403579A1 (DELINIA, published 2021)
